In paper doi:10.1101/2020.11.20.391094:

What was measured:
[1] = biological target: His-SctV, full length, synthesized in C41; also reconstituted in peptidiscs (His-SctV9-PR) (enteropathogenic E. coli (EPEC)); test: SEC-MALS
[2] = biological target: His-SctV, full length, synthesized in C41; also reconstituted in peptidiscs (His-SctV9-PR) (enteropathogenic E. coli (EPEC)); test: native gel or EMSA
[3] = biological target: His-SctV-C, isolated C-terminal cytoplasmic domain of EPEC SctV (enteropathogenic E. coli (EPEC)); test: native MS
[4] = biological target: His-SctV-C, isolated C-terminal cytoplasmic domain of EPEC SctV (enteropathogenic E. coli (EPEC)); test: SEC-MALS
[5] = biological target: His-SctV-C, isolated C-terminal cytoplasmic domain of EPEC SctV (enteropathogenic E. coli (EPEC)); test: native gel or EMSA
[6] = biological target: SctV, full length, untagged, plasmid-borne in E. coli C41 (enteropathogenic E. coli (EPEC)); test: native gel or EMSA

His-SctV, full length, synthesized in C41; also reconstituted in peptidiscs (His-SctV9-PR) (natural protein)
stoichiometry N [1]: 9
stoichiometry N [2]: 9

His-SctV-C, isolated C-terminal cytoplasmic domain of EPEC SctV (domain or fragment)
stoichiometry N [3]: 9
stoichiometry N [4]: 9
stoichiometry N [5]: 9

SctV, full length, untagged, plasmid-borne in E. coli C41 (natural protein)
stoichiometry N [6]: 9
